Columns and labels:
Caldendrin full length [1] = molecular target: Caldendrin full length (UniProt O88751); assay: cross-linking + SEC; protein incubated with 0.01% glutaraldehyde, then Superdex 75 gel filtration
Caldendrin full length [2] = molecular target: Caldendrin full length (UniProt O88751); assay: SEC; Superdex 75, ÄKTA FPLC, 50 mM Tris, 100 mM KCl, 500 µM Mg2+ with 200 µM EGTA or 100 µM Ca2+; monomer to dimer
Caldendrin full length [3] = molecular target: Caldendrin full length (UniProt O88751); assay: dynamic light scattering; Zetasizer Nano S, 25°C, 50 mM Tris, 100 mM KCl, Mg2+ with EGTA or with 50 µM Ca2+; monomer to dimer
Caldendrin full length [4] = molecular target: Caldendrin full length (UniProt O88751); assay: SPR; Biacore X-100, CM5 chip, ligand amine-coupled, 25°C, flow 10 µl/min; running buffer with 1 mM Mg2+/1 mM EGTA (column 'EGTA'); molar binding activity deduced from the dissociation phase
Caldendrin full length [5] = molecular target: Caldendrin full length (UniProt O88751); assay: SPR; Biacore X-100, CM5 chip, ligand amine-coupled, 25°C, flow 10 µl/min; running buffer with 1 mM Mg2+/500 µM Ca2+ (column 'Ca2+'); molar binding activity deduced from the dissociation phase
[6] = molecular target: Caldendrin-C-terminus (Caldendrin-Ct, residues 137–298) (UniProt O88751); assay: SPR; Biacore X-100, CM5 chip, ligand amine-coupled, 25°C, flow 10 µl/min; running buffer with 1 mM Mg2+/1 mM EGTA (column 'EGTA'); molar binding activity deduced from the dissociation phase
[7] = molecular target: Caldendrin-C-terminus (Caldendrin-Ct, residues 137–298) (UniProt O88751); assay: SPR; Biacore X-100, CM5 chip, ligand amine-coupled, 25°C, flow 10 µl/min; running buffer with 1 mM Mg2+/500 µM Ca2+ (column 'Ca2+'); molar binding activity deduced from the dissociation phase

Sequence of Caldendrin-C-terminus (Caldendrin-Ct, residues 137–298), O88751 137-298 (domain or fragment; other documents disagree on this pair) (O88751 137-298): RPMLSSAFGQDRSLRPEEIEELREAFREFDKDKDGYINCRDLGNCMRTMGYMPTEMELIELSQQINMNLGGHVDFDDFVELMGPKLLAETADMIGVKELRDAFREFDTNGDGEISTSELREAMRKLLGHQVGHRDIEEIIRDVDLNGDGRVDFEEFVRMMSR

Caldendrin full length (from UniProt O88751 1-298) (natural protein)
stoichiometry N (Caldendrin full length [1]): 2 | stoichiometry N (Caldendrin full length [2]): 2 | stoichiometry N (Caldendrin full length [3]): 2 | molar binding activity (Caldendrin full length [4]): 0.0215 | molar binding activity (Caldendrin full length [5]): 0.0757

Caldendrin-C-terminus (Caldendrin-Ct, residues 137–298), O88751 137-298 (domain or fragment; other documents disagree on this pair)
molar binding activity [6]: 0.0541 | molar binding activity [7]: 0.0373

Reference: paper PMC4110014
